The source of these data is the DeepSol protein solubility set.

A short description of the series: soluble on expression in E. coli; label from the status in PepcDB or PDB records.
Take “MGITALAFDFGTKSIGCAIGQSITGTAQALPAFKAQDGIPNWEAIEKCLKEWKPDVVIVGLPLNMDGTEQDLTLRARKFANRLQGRFGVNVHLQDERLTTTQARSEIFERGGFKALKKGKIDGVSACLILESWFEYAEY”: the “soluble on expression in E. coli” value is listed as “not soluble”.
Then “MGKEKVHINIVVIGHVDSGKSTTTGHLIYKCGGIDKRTIEKFEKEAQEMGKGSFKYAWVLDKLKAERERGITIDIALWKFETAKYYITIIDAPGHRDFIKNMITGTSQADCAVLVVACGTGEFEAGISKNGQTREHALLAQTLGVKQLIVACNKMDSTEPPFSEARFTEITNEVSGFIKKIGYNPKAVPFVPISGFNGDNMLEVSSNMPWFKGWAVERKEGNASGKTLLEALDSIIPPQRPTDRPLRLPLQDVYKIGGIGTVPVGRVETGIIKPGMVVTFAPQNVTTEVKSVEMHHESLPEAVPGDNVGFNVKNVSVKDIRRGSVCSDSKQDPAKEARTFHAQVIIMNHPGQISNGYTPVLDCHTAHIACKFNELKEKVDRRTGKKVEDFPKFLKSGDAGIVELIPTKPLCVESFTDYAPLGRFAVRDMRQTVAVGVIKSVEKSDGSSGKVTKSAQKAAPKKK”, with “not soluble”.
As for “MGKGDPKKPRGKMSSYAFFVQTCREEHKKKHPDASVNFSEFSKKCSERWKTMSAKEKGKFEDMAKADKARYEREMKTYIPPKGETKKKFKDPNAPKRPPSAFFLFCSEYRPKIKGEHPGLSIGDVAKKLGEMWNNTAADDKQPYEKKAAKLKEKYEKDIAAYRAKGKPDAAKKGVVKAEKSKKKKEEEEDEEDEEDEEEEEDEEDEDEEEDDDDE”, the entry is “soluble”; as for “MGKKPVVIGVAGGSGSGKTSVARAIYDHFGDHSILVLEQDFYYKDQSHLPFEERLKTNYDHPLAFDNDLLIEHIHKLLRYEPIDKPVYDYTLHTRSSDVIRVEPKDVIIVEGILVLEDERLRNLMDIKVYVDTDPDIRIIRRLIRDMKERGRTFDSVIEQYLSVVRPMHNQFVEPTKRYADVIIPEGGQNVVAIDLMVAKIRTVLEQKAVL”, “not soluble”.
On to “MGKLAADQLTLSYDSTVIIDGVDLKIEEGKITALIGANGCGKSTILKSLARLMAPKSGTVLLEGKDIHRQPSKEVAKKLAILPQSPQAPEGLTVEELCYFGRHPHKKLLSKHTQEDHDMVEWALEATGMIELKDRTLDALSGGQRQRAWISMALAQGTDLLLLDEPTTYLDISHQIEVLELLKKLNRDHGRTVVMVLHDLNQAAQYADYLISVLDGKIYNAGTPEDVFTQPFFREVFGLECCIMRSPIDQKPMCLPTGLCPKLRAK”, for which the “soluble on expression in E. coli” value is recorded as “not soluble”.
In the case of “MGKMNHQDELPLAKVSEVDEAKRQWLQGMRHPVDTVTEPEPAEILAEFIRQHSAAGQLVARAVFLSPPYLVAEEELSVLLESIKQNGDYADIACLTGSKDDYYYSTQAMSENYAAMSLQVVEQDICRAIAHAVRFECQTYPRPYKVAMLMQAPYYFQEAQIEAAIAAMDVAPEYADIRQVESSTAVLYLFSERFMTYGKAYGLCEWFEVEQFQNP”, the “soluble on expression in E. coli” value is “soluble”.
For the sequence “MGKNFDEAALLKSLEGVPDAEKVQKLIKKLAESEKQNAELKIKVLDYDKVVKVKDLTEKKLERNNQILLRTEEAKSKLEELCRGLQKANHQTREEACAKMKKLEVERGLAVEQLKVTLKDIEKTMAEGRSKSDSLAEDNKKLSEKFSEIGHQYEEKMKVIDQQIQKKEKYWEEYGKTKDLEIKLLTAKLESASIQVKKSGMEKDELAKIMLEETARVGGALKTEKALREQVQEYSAKYSELTSCLSKSNEAFDKFKDEISRVNKKCMQVEKEGLSYKKKSDEANKKVLVLTMTNQEYAEKIATSDKKIQMLENLCRALRKGEQEPVTTAETTEAN”, the “soluble on expression in E. coli” value is given as “not soluble”.
Then “MGKTNDWLDFDQLAEEKVRDALKPPSMYKVILVNDDYTPMEFVIDVLQKFFSYDVERATQLMLAVHYQGKAICGVFTAEVAETKVAMVNKYARENEHPLLCTLEKAGA”, with “soluble”; and “MGKVYIVGAGPGDPDLITVKGLKCIEKADVILYDRLVNKELLSYAKPEADLIYCGKLPNYHTMKQETINTFLIKYAKKGKIVTRLKGGDPFVFGRGGEEAEALAKQGVPFEIVPGISAGIAAPAYAGIPVTHRDASASFAIVTGHRKEDAAEEVKWGNLAKGVETLAVYMGVSNLPYICEQLMKHGKDKSTPAAIIERGTTSMQRTVVGTLGTIVDVAKKEQIQNPSMIVIGEVVRFREKIHWFEKQTESTYQVSGVL”, with “not soluble”.
With “MGKYQPSFQTKKGWTEVICGPMFSGKTEKLLHKIKRWKIAKISVVIFKPIIDTRQTNIVKSRNGEYDQAITINSPFEIYDHLVDKNYQIVAIDEAQFFSNEIIEVVTTLNEIGTNVIISGLDTDFRAEPFGCIPQLLAIADVVNKLDAICNVCGSLAQRTQRLVNKNTNDNLVLIGDAEAYEARCKLHHSFLTKKHVTVKTKNFKEQVQGKTQLEHHHHHH”, the “soluble on expression in E. coli” value was “not soluble”.
As for “MGLEKVVLTGLGAGLIAVAARGQNPLATALKIEQNDEGETVVRDAVTIGKPAEQLYAVWRDLPGLPLLMTHLRSVEVLDDKRSRWTVEAPAPLGTVSWEAELTADEPGKRIAWRSLPGARIENSGEVLFRPAPGARGTEVVVRLTYRPPGGSAGAVIARMFNQEPSQQLRDDLMRFKREQELGLEHHHHHH”, the “soluble on expression in E. coli” value is given as “soluble”.
As for “MGLELEWMPIEDLKLPSNVIEIIKKRGIKKLNPPQTEAVKKGLLEGNRLLLTSPTGSGKTLIAEMGIISFLLKNGGKAIYVTPLRALTNEKYLTFKDWELIGFKVAMTSGDYDTDDAWLKNYDIIITTYEKLDSLWRHRPEWLNEVNYFVLDELHYLNDPERGPVVESVTIRAKRRNLLALSATISNYKQIAKWLGAEPVATNWRPVPLIEGVIYPERKKKEYNVIFKDNTTKKVHGDDAIIAYTLDSLSKNGQVLVFRNSRKMAESTALKIANYMNFVSLDENALSEILKQLDDIEEGGSDEKELLKSLISKGVAYHHAGLSKALRDLIEEGFRQRKIKVIVATPTLAAGVNLPARTVIIGDIYRFNKKIAGYYDEIPIMEYKQMSGRAGRPGFDQIGESIVVVRDKEDVDRVFKKYVLSDVEPIESKLGSERAFYTFLLGILSAEGNLSEKQLENFAYESLLAKQLVDVYFDRAIRWLLEHSFIKEEGNTFALTNFGKRVADLYINPFTADIIRKGLEGHKASCELAYLHLLAFTPDGPLVSVGRNEEEELIELLEDLDCELLIEEPYEEDEYSLYINALKVALIMKDWMDEVDEDTILSKYNIGSGDLRNMVETMDWLTYSAYHLSRELKLNEHADKLRILNLRVRDGIKEELLELVQISGVGRKRARLLYNNGIKELGDVVMNPDKVKNLLGQKLGEKVVQEAARLLNRFH”, the entry is “soluble”.
Regarding “MGLELFLDLVSQPSRAVYIFAKKNGIPLELRTVDLVKGQHKSKEFLQINSLGKLPTLKDGDFILTESSAILIYLSCKYQTPDHWYPSDLQARARVHEYLGWHADCIRGTFGIPLWVQVLGPLIGVQVPEEKVERNRTAMDQALQWLEDKFLGDRPFLAGQQVTLADLMALEELMQPVALGYELFEGRPRLAAWRGRVEAFLGAELCQEAHSIILSILEQAAKKTLPTPSPEAYQAMLLRIARIP”, the “soluble on expression in E. coli” value is reported as “soluble”.
As for “MGLERFNGVRVDDAERALLTCCRSLRWARRVADHRPYPDLDALLAAADEAAYDLAPADLAEALAGESLTLLPDDAYSVAHTALSAAHAAYESRFGHVFVICLDNAPPGEALDQVLAGIRSRLTNDREEERVLAAEELRRLARGRLARLVRDFSPRPALQRTPLEHHHHHH”, the “soluble on expression in E. coli” value is listed as “not soluble”.
As for “MGLHYFLDHKKEDLYKSVQDVYKSDDRPWVVGFSGGKDSTVVVQIIFYALASMSKNELTKPVYIISSDTMVENPKILEHIDTQLLKMKKAANELELPIHVEKVMPNIKNTFWVNLIGRGYPAPRQKFRWCTDRLKIDPANNFILNKVSEFGETVVVLGVRKSESSTRAQVMNTHKVEGKILRRHTKLPNSYVYAPIEDFSLDDVWTYLMQVPNPWGADNADLLALYQDSQGECPLVIDNSTPSCGNSRFGCWVCTVVQEDKSLKGFIESGDEWLTPLLKFRNWLLENRDKEDYREKKRANGSVYLIGDEDNKRLGLGPYTLEHRKEILRKLLETEKQLQHPHQPKYELITIEELKEIRKIWFEKGDWEDSVLAIYEEVYGHRPNWDIEESKFLESEDIKLLKKLCHEEEVEFELVQKLVNLEFQHYGYKHRYGILKDINRILNEEWLHFDQLQQGDNYAD”, the entry is “not soluble”.
With “MGLNDNKAGMEGLDKEKINKIIMEATKGSRFYGNELKKEKQVNQRIENMMQQKAQITSQQLRKAQLQVDRFAMELEQSRNLSNTIVHIDMDAFYAAVEMRDNPELKDKPIAVGSMSMLSTSNYHARRFGVRAAMPGFIAKRLCPQLIIVPPNFDKYRAVSKEVKEILADYDPNFMAMSLDEAYLNITKHLEERQNWPEDKRRYFIKMGSSVENDNPGKEVNKLSEHERSISPLLFEESPSDVQPPGDPFQVNFEEQNNPQILQNSVVFGTSAQEVVKEIRFRIEQKTTLTASAGIAPNTMLAKVCSDKNKPNGQYQILPNRQAVMDFIKDLPIRKVSGIGKVTEKMLKALGIITCTELYQQRALLSLLFSETSWHYFLHISLGLGSTHLTRDGERKSMSVERTFSEINKAEEQYSLCQELCSELAQDLQKERLKGRTVTIKLKNVNFEVKTRASTVSSVVSTAEEIFAIAKELLKTEIDADFPHPLRLRLMGVRISSFPNEEDRKHQQ”, the “soluble on expression in E. coli” value is given as “soluble”.
As to “MGNELIVSVQNRIQEMQHGEGLRLPTGYSVGNALNSAYLILSDNSKGKSLLEKCHPTSVSKALLNMAIQGLSPAKNQCYFVPYGDQCTLMRSYFGSVSILERLSNVKKVHAEVIFEGDEFEIGSEDGRTVVTNFKPSFLNRDNPIIGAFAWVEQTDGIKVYTIMTKKEIYKSWSKAKTKNVQNDYPQEMAKRTVLSRAAKMFINSSSDNDLLVKAINETTEDEYDNNQPRKDITPNPPNIEKLEKSIFNQDENKKIAQDMIDSIDLNQADKDLQEELNIEFPDPSKNYLATGEVNGDVENEDGPYPF”, the “soluble on expression in E. coli” value was “not soluble”.
As for “MGNYLNPDNSKFQRAVNSDIYVDKTGLIKYTNRVINTMQAYVCVSRPRRFGKSMAADMLTAYYSRGCDSRELFAGLEIAKDENFGGYLNKYDTVFLNVQEFLSRSSDVKELIARIKQRVIRELTRQYPDVELFDSTDLAETMQDIYAESKCPFVLIIDEWDCIFREFKNDKEAQEKYLDFLRDLIKDKSYIHLAYMTGILPIKKYGTHSALNMFDEFSMIDPGPLASYVGFTESEVEKLCGEYQMDIDEIRNWYDGYSFEEVPSVYSPKSVISCMRLGRLGNYWNQTETFEALQLYIDMNFEGLRDDILSMLAGEEVPVNTGSFTNDMATFRTEDDVLTLLIHLGYLGYRYATKTVFIPNGEIRAEFVNAVSVSDWGEVSNALKNSADTLQAIWQGREKQVAEGIRQAHFETSHIQYNDENALSYTISLALYAARNFYTVHRELSGGKGFADLVFIPRKRFMDKPALVVELKWDKDVAGAITQIREKEYCRSLEEYHGKLLLVGINYDKKTKEHSCKIEEYRK”, the “soluble on expression in E. coli” value is “not soluble”.
Turning to “MGPEGALPKASEATVCANNSKVSSPGEKVVLWTREADRVILTMCQEQGAQPHTFSVISQQLGNKTPVEVSHRFRELMQLFHTACEASSEDEDDATSTSNADQLSDHGDLLSEEELDE”, the “soluble on expression in E. coli” value is given as “soluble”.
As for “MGPLVKEKYEEVEQIPLKKPHIVSLIGGFGYREPIFRKVLTTAALDSGINYTLISGPSLDPSKFKEIPKNVQILRFVGDTFPYIRSSDAVIAPGGHSTMMEALSFGTPILSFPDEGHSEQENNAAVIEEEGYGRMLSYSTPPEVILECIREVLEDKKYRDKVKRLQRLASELDGLEHHHHHH”, the “soluble on expression in E. coli” value is recorded as “soluble”.
With “MGQDHIRYDILAQDALRGVIRKVLGEVAATGRLPGDHHFFITFLTGAPGVRISQHLKSKYAEQMTIVIQHQFWDMKVTETGFEIGLSFSDTPEKLVIPYNAIRGFYDPSVNFELEFDVPLAKEEEMEEAEITAYPVSHEAKPASETPKSGEEKKEGSVVSLDAFRKKQLEHHHHHH”, the “soluble on expression in E. coli” value was “soluble”.
